How the values were obtained:
[1] = biological target: CytERM-moxBFP (Aequorea victoria)
[2] = biological target: CytERM-EBFP2 (Aequorea victoria)

**Q.** With CytERM-moxBFP as the substance, how does the % cells with OSER structures (CytERM assay, n=109 cells) [1] read?
**A.** 0.9%

**Q.** How did the % cells with OSER structures (CytERM assay, n=138 cells) [2] turn out when CytERM-EBFP2 was run?
**A.** 63.7%

**Q.** CytERM-mTagBFP was tested. Which % cells with OSER structures (CytERM assay, n=69 cells) (CytERM-mTagBFP) did it give?
**A.** 43.5%

Source: publication PMC4499870
